For one series, the target named is T1, DivJ (Caulobacter vibrioides, UniProt Q03228).
T1 construct: His-tagged, recombinant from E. coli
Nature of the series: coupled-enzyme (PK/LDH, NADH) ATPase assay. Particulars: 1 mM ATP, 10 mM MgCl2, kinase buffer pH 8.0; with and without DivK activator. The class given is biochemical.

For another series, the target named is T2, DivL(523–769) (Caulobacter vibrioides, UniProt Q9RQQ9).
T2 construct: DHp-CA domains only (no PAS domains), residues 523-769, N-terminal His6, E. coli Rosetta (DE3) pLysS, homodimer in solution
T2 sequence (Q9RQQ9 523-769): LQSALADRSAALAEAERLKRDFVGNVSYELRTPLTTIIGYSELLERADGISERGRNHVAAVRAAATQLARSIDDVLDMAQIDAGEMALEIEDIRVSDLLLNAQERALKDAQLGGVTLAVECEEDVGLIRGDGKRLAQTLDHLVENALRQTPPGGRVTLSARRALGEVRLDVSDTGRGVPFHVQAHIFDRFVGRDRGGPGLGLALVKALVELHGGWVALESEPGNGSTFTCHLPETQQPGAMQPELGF
Nature of the series: fluorescence titration of TNP-ATP with DivL. Particulars: read-out: apparent binding constant.

In series [1] the target is BODIPY-DivK (unphosphorylated DivK response regulator) (Caulobacter crescentus). As to the kind of experiment: fluorescence polarisation; 250 nM BODIPY-DivK or BODIPY-DivK∼P with varying kinase concentrations (DivL 0–120 µM), 45 min to equilibrium; DivK∼P made with 250 nM DivJ, 1 mM ATP, 5 mM MgCl2; unphosphorylated DivK with 1 mM AMP-PNP, 5 mM MgCl2; apparent Kd.
In series [2] the target is BODIPY-DivK∼P (phosphorylated DivK response regulator) (Caulobacter crescentus). The series is described as above.
Series [3] deals with the molecule itself. Nature of the series: SEC; gel filtration of the purified DivL point mutants; conditions not given. In general terms: SEC sorts molecules by how far they enter the pores of the column.
Series [4] addresses BODIPY-DivK (unphosphorylated DivK response regulator). Nature of the series: fluorescence polarization binding assay. Particulars: parent: est. 2.0; read off a plot. For orientation: In fluorescence polarisation assays a small probe gives low polarisation when free and higher when bound to something large.
Series [5] concerns the target BODIPY-DivK∼P (phosphorylated DivK response regulator). Nature of the series: fluorescence polarization binding assay. To be noted: parent: est. 36; read off a plot.
Series [6] has as its target BODIPY-DivK∼P (phosphorylated DivK response regulator) (Caulobacter crescentus). As to the kind of experiment: fluorescence polarisation; 250 nM BODIPY-DivK or BODIPY-DivK∼P with varying kinase concentrations (DivL 0–120 µM), 45 min to equilibrium; DivK∼P made with 250 nM DivJ, 1 mM ATP, 5 mM MgCl2; unphosphorylated DivK with 1 mM AMP-PNP, 5 mM MgCl2; apparent Kd. This is another data set of the same source.

The target in series [7] is BODIPY-DivK (unphosphorylated DivK response regulator) (Caulobacter crescentus). Described as above. The source holds these as a separate data set.
Series [8] concerns the molecule itself. Nature of the series: SEC; 2 mg/ml His6-DivL(523–769) on Superdex 200 10/300 GL against Bio-rad standards.

Where a chain is given by its changes, count along the chain named. In names and notes the source's numbering stands. Like-named read-outs stand apart in the source and are kept apart here. Where only a bound is given, the exact number is not on record here.

One may read the stoichiometry N as a count of units in the complex or per binding partner.

T1 sequence (Q03228 189-597): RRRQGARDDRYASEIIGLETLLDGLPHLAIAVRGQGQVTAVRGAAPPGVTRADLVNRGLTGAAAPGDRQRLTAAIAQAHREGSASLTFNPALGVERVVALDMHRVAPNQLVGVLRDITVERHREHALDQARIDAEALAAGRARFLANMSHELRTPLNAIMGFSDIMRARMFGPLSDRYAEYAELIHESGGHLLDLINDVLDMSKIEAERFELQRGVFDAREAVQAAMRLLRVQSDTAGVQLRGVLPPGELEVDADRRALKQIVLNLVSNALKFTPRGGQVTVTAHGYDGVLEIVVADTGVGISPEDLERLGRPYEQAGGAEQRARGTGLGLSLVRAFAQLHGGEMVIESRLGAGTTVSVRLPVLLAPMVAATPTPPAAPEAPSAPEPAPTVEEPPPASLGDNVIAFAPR

For `Nc1ncnc2c1ncn2[C@@H]1O[C@H](COP(=O)(O)OP(=O)(O)OP(=O)(O)O)[C@@H](O)[C@H]1O` [ATP], at DivJ, the ATP consumption rate result was “we observed stimulation of DivJ autokinase activity in the presence of DivK”.
Regarding `Nc1ncnc2c1ncn2[C@@H]1O[C@H](COP(=O)(O)OP(=O)(O)OP(=O)(O)O)[C@H]2OC3(O[C@H]21)C([N+](=O)[O-])=CC(=[N+]([O-])O)C=C3[N+](=O)[O-]` (stereo partly shown) [TNP-ATP], the Kd at DivL(523–769) was 57 ± 8 µM.

B1: DivJ histidine kinase, Q03228 1-597 (enzyme)
chain: RDDRYASEIIGLETLLDGLPHLAIAVRGQGQVTAVRGAAPPGVTRADLVNRGLTGAAAPGDRQRLTAAIAQAHREGSASLTFNPALGVERVVALDMHRVAPNQLVGVLRDITVERHREHALDQARIDAEALAAGRARFLANMSHELRTPLNAIMGFSDIMRARMFGPLSDRYAEYAELIHESGGHLLDLINDVLDMSKIEAERFELQRGVFDAREAVQAAMRLLRVQSDTAGVQLRGVLPPGELEVDADRRALKQIVLNLVSNALKFTPRGGQVTVTAHGYDGVLEIVVADTGVGISPEDLERLGRPYEQAGGAEQRARGTGLGLSLVRAFAQLHGGEMVIESRLGAGTTVSVRLPVLLAPMVAATPTPPAAPEAPSAPEPAPTVEEPPPASLGDNVIAFAPR
modifications: not checked
Consider B1, for which the Kd was determined as 8 µM in [1] and 16 µM in [2].

B2: DivL(152–769) Y562A (domain or fragment, Caulobacter crescentus, UniProt Q9RQQ9 152-769, looked up)
chain: RADSGLPTAARFAAFVDSVVEPCWIAGADGQAIWGNAAFVRAVGAASAQAPALAGKSFDRGADAVVVEAAGKGERREALRWINVEGRRRAFRLSAQPLDGGGVGVFCADVTEIEDVRDAFKKHVEAHDETLNHIAEAVAIFSQTRRLSYHNTAFAELWGLEPAWLADRPTHGEVLDRLRQRRRLPETIDYAGWKAAELARYEDLGPQADDLWDLPDGRTLKVVRQPHPLGGMLLIYSDITGELRLKAQYNALIQVQQATLDKLNDAVAVFGSDGRLRLHNEAFETFWNVTPHALEAAGDFEGVVELCVPRLHDLSFWRELKGRVADPDPQMRAPTSGEVRTSDSRIVLYQSRPLPDGATLIAFADVTDTRDLQSALADRSAALAEAERLKRDFVGNVSYELRTPLTTIIGASELLERADGISERGRNHVAAVRAAATQLARSIDDVLDMAQIDAGEMALEIEDIRVSDLLLNAQERALKDAQLGGVTLAVECEEDVGLIRGDGKRLAQTLDHLVENALRQTPPGGRVTLSARRALGEVRLDVSDTGRGVPFHVQAHIFDRFVGRDRGGPGLGLALVKALVELHGGWVALESEPGNGSTFTCHLPETQQPGAMQPELGF
notes: DivL pseudo-histidine kinase, Caulobacter crescentus, residues 152-769; source: E. coli Rosetta (DE3) pLysS, purified (Ni-NTA, gel filtration)
For B2, the “stoichiometry N” value in [3] was determined as 2. Further, the response in series [4] was found to be 2.9 AU; in series [5] it was 3.2 AU.

B3: DivL(152–769) Y550H (domain or fragment, Caulobacter crescentus, UniProt Q9RQQ9 152-769, looked up)
chain: B2 chain with Y399H, A411Y
notes: DivL pseudo-histidine kinase, Caulobacter crescentus, residues 152-769; also called DivL Y550H; source: E. coli Rosetta (DE3) pLysS, purified (Ni-NTA, gel filtration)
For the molecule B3, the “stoichiometry N” value in series [3] was found to be 2. The values for the response in series [4] and in series [5] were 4 AU and 35 AU, respectively.

B4: DivL(152–769) T557N (domain or fragment, Caulobacter crescentus, UniProt Q9RQQ9 152-769, looked up)
chain: B2 chain with T406N, A411Y
notes: as for B2
B4: the “stoichiometry N” value in series [3] came out at 2. In addition, in series [5], the response came out at 2.6 AU.

B5: DivL(152–769) R553A (domain or fragment, Caulobacter crescentus, UniProt Q9RQQ9 152-769, looked up)
chain: B2 chain with R402A, A411Y
notes: as for B2
As for B5, the “stoichiometry N” value in [3] was 2. Moreover, the response worked out at 2.3 AU in series [4] and 3.2 AU in series [5].

B6: DivL(152–769) (domain or fragment)
chain: B2 chain with A411Y
With B6, the Kd is 11 µM in [6] and greater than 150 µM in series [7].

B7: DivL(152–769) H579E (domain or fragment, Caulobacter crescentus, UniProt Q9RQQ9 152-769, looked up)
chain: B2 chain with A411Y, H428E
notes: as for B2
B7: the “stoichiometry N” value in series [3] worked out at 2. Further, the results for the response in series [4] and in series [5] were 4.2 AU and 5.1 AU, respectively.

B8: PleC histidine kinase/phosphatase, P37894 1-842 (enzyme)
chain: VAHREFIDSERRFRLAVEAARCGIWEWDLNGDQVYLSDVTGAMFGWGGGGVVSGQDLLERISIDHRERVRQALANAAMYGAFDVSFRVPASEQGARSLWIDARGQGFGKPGSEGHARIIGVALDVTEERIAQARAQAAENRLRDAIESVSEAFVLWDRQGRLLMCNRNYRSVFSLEPKILKPGAARAEVNRFAALAIKQDHPAPDGAKGVREAEMMDGRWIQISERRTAEGGLVMTAADITAIKTQEEARRRNEEQLQNAVAGLERSQEQLAELARKYETEKVKAESANKAKSEFLANMSHELRTPLNAINGFSEIMMNEMFGPLGDQRYKGYSQDIHSSGQHLLALINDILDMSKIEAGKMNLKFESMHLEDVAEDAVRLVRNRAEAAGLKLDIDFPQLPEIEADYRAVKQVLLNLLSNAIKFTPRAGSVTVRAEVRRDPFGDLIKVSVTDTGIGIAKEDLARLAKPFEQVESQFSKTTQGTGLGLALTKSLITMHDGVLEMHSTPGEGTTVSFTLPVRHSDQKITRDFVAA
modifications: not checked
B8: the Kd in series [1] came out at 26 µM; in [2], 2.4 µM.

B9: His6-DivL(523–769) (domain or fragment, Caulobacter crescentus, UniProt Q9RQQ9 523-769, looked up)
chain: T2 sequence (Q9RQQ9 523-769)
notes: DivL pseudo-histidine kinase, Caulobacter crescentus, residues 523-769 (DHp and CA domains with part of the N-terminal input helix); also called DivL DHp-CA construct; crystallization construct; source: E. coli Rosetta (DE3) pLysS (plasmid pWSC8), purified (Ni-NTA, gel filtration); not shown: His6, N-terminal, kept
B9: the Kd in series [6] came to 7 µM; in series [7], 15 µM. In [8], the “stoichiometry N” value stood at 2.

The values are drawn from PMC4211667, “Cell Fate Regulation Governed by a Repurposed Bacterial Histidine Kinase” (PLoS Biology, 2014).
